In paper PMC3530481:

Target: collagen VI tetramers from bovine cornea (bovine)
Assay: ELISA; solid-phase binding: collagen VI tetramers coated (10 ug in 100 ul TBS, overnight 4 C), recombinant WARP dimer 0-1 uM in TBS, 1 h at room temperature, detected with sheep anti-WARP serum; Scatchard analysis, apparent Kd

B1: recombinant human WARP (von Willebrand factor A-domain related protein), dimer (natural protein)
chain: ERGPPASAPRGDLMFLLDSSASVSHYEFSRVREFVGQLVAPLPLGTGALRASLVHVGSRPYTEFPFGQHSSGEAAQDAVRASAQRMGDTHTGLALVYAKEQLFAEASGARPGVPKVLVWVTDGGSSDPVGPPMQELKDLGVTVFIVSTGRGNFLELSAAASAPAEKHLHFVDVDDLHIIVQELRGSILDAMRPQQLHATEITSSGFRLAWPPLLTADSGYYVLELVPSAQPGAARRQQLPGNATDWIWAGLDPDTDYDVALVPESNVRLLRPQILRVRTRPGEAGPGASGPESGAGPAPTQLAALPAPEEAGPERIVISHARPRSLRVSWAPALGSAAALGYHVQFGPLRGGEAQRVEVPAGRNCTTLQGLAPGTAYLVTVTAAFRSGRESALSAKACTPDGPRPRPRPVPRAPTPGTASREP
- Kd: 22 nM
